Laboratory results as given in article PMC4614378, “A cancer-associated mutation inactivates a region of the high-mobility group protein HMG20b essential for cytokinesis” (Cell Cycle, 2014).
No end group written: not given here.

How the values were obtained:
Assay in all cases: pull-down; 1 nmol biotinylated BRC5 peptide on Dynabeads M-280 Streptavidin, 100 pmol purified HMG20b fragment; 50mM Tris-HCl pH 7.4, 150mM NaCl, 1% NP-40, 5mM EDTA, 10mM NaF, 0.1% BSA; 30 minutes at room temperature; Coomassie staining
Details in all cases: both partners purified
[1] = biological target: T1, HMG20b fragment aa173-317 with C-terminal 6xHis tag (human, UniProt Q9P0W2 173-317)
T1 construct: cloned in pET21a; also called C-terminal fragment; source: E. coli BL21 (DE3), purified (Ni-NTA agarose)
T1 sequence (looked up): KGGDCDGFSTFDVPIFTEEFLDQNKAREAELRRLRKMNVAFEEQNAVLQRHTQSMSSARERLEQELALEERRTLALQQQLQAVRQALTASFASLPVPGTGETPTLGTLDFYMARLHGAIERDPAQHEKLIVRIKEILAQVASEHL

[2] = biological target: T2, HMG20b fragment aa113-317 with C-terminal 6xHis tag (human, UniProt Q9P0W2 113-317)
T2 construct: cloned in pET21a; source: E. coli BL21 (DE3), purified (Ni-NTA agarose)
T2 sequence (looked up): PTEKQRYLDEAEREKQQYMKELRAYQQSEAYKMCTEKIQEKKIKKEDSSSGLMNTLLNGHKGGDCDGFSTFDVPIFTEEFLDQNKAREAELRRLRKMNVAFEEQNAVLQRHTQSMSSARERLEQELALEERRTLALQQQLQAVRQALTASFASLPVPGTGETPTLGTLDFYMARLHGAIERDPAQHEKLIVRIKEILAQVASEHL

[3] = biological target: T3, full-length HMG20b with C-terminal 6xHis tag (human, UniProt Q9P0W2 1-317)
T3 construct: cloned in pET21a; also called His-HMG20b; source: E. coli BL21 (DE3), purified (Ni-NTA agarose)
T3 sequence (looked up): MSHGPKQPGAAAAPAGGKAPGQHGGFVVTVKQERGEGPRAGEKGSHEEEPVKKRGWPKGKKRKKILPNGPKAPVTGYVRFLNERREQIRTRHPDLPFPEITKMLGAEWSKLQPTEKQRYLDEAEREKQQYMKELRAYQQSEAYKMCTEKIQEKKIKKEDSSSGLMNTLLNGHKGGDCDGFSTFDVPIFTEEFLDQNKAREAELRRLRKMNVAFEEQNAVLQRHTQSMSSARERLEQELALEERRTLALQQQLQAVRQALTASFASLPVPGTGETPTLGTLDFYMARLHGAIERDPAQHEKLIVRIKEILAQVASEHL

[4] = biological target: T4, HMG20b fragment aa173-276 with C-terminal 6xHis tag (human, UniProt Q9P0W2 173-276)
T4 construct: cloned in pET21a; also called C-terminal Δ1; source: E. coli BL21 (DE3), purified (Ni-NTA agarose)
T4 sequence (looked up): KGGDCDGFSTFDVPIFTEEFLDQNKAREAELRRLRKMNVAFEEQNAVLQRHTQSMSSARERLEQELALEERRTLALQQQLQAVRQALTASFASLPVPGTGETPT

Measured: binding result

B1: Biotinylated BRC5 peptide (BRCA2 amino acid residues 1661-1695) (peptide, UniProt P51587 1661-1695, looked up)
peptide: YSVIENSALAFYTSCSRKTSVSQTSLLEAKKWLRE
modifications: also: biotinylated (position not given here)
notes: BRCA2, human, BRC5 repeat motif, residues 1661-1695; also called Biotin-BRC5 peptide; BRC5 repeat; source: synthetic peptide (Cambridge Research Biochemicals)
binds: all assays above
